Here are results for one molecule from US20100256338A1.

The test has as its target EGFR on cells (H322M) (human), P00533. The experiment in a line: cell-based or functional assay.

B1: humanized <EGFR>ICR62 (antibody, V domains shown)
VH: QVQLVQSGAEVKKPGSSVKVSCKASGFTFTDYKIHWVRQAPGQGLEWMGYFNPNSGYSTYAQKFQGRVTITADKSTSTAYMELSSLRSEDTAVYYCARLSPGGYYVMDAWGQGTTVTVSS
VL: DIQMTQSPSSLSASVGDRVTITCRASQGINNYLNWYQQKPGKAPKRLIYNTNNLQTGVPSRFSGSGSGTEFTLTISSLQPEDFATYYCLQHNSFPTFGQGTKLEIKRT
B1 had a reduction of cell growth, H322M spheroids, 7 days, 100 nM, Celltiter Glow of 77%.
